The data set can be described thus: protease stability score; higher = more stable; yeast display proteolysis, trypsin and chymotrypsin.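 Also: relative to predicted unfolded state with 0 unfolded-like and 1 meaning tenfold more protease.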
“DEREKFAEEIMEIFIRDVLTGDFDSLHKLIDPNTKIDLHIGDKIRPLHGREEFVKWVKEMRIHRWDITDMKVIGDKAHIDTTVDGEFNGRRTRFRQIINLDMVNGRLREIQITIG” registered a protease stability score of 2.2.

The sequence “DEREKFLEEMVEEWFRNWVTGDEDRFEELADPDVRFHIGDKDSHGREAFEELMKRMGFKYKHIELHDVHIQGDKSHIDGHVQGQVNGQERDSHVHLDLVVVNGRLRTMEVRFR” came in with a protease stability score of 1.44.

“DEREKHAKDFFDILLHLLLTGDWDKIIRMADPDVKLEIGDKRFHGMEHISETWLKRFTRLGVDHQHFHLHTVKFINGVATIHGRQHLHVGDKTIDLEVIIYVEKIDGRWILNNIEVR”: the protease stability score worked out at 1.11.

Consider “DEREKLAKKFLELFLHYIETGDEEVLRKLLDPSTRLEVNGRDNHGWKMFIWLLRELRIHRVHMELKVTDIQGDYVRNEGRLRSDVEYGDKRFETEYMVIIFLEKVDGRWHLHSFEVD”, for which the protease stability score came out at 1.56.

In turn, “DEREKREEEVLKIIIEITETGDWRIFMELADPHVKLDIGDKDMHGMEEAERLWELMHKLLGINHIRFRHLRIQGDKVDMEFNVTIGDKQVDTRRHVITVDGRLHEVHEEFK” gave a protease stability score of 0.399.

Sequence “DEREKRLKDIALIVMHLLLTGDEERFHELFDPDTKMTLIFNGQIETSHGMEEVRELLRYWLEEIRIEHYHLTEIHLIGDKTHVHGELVGEVNGKRFKTHIHITIVVIDGKVHSVEFELR” registered a protease stability score of 1.77.

As to “DEREKRWRKLHQDILEAIWTGDEETFLRLADPDMRFYLIVNGRTVDLHGMELASVVLHERRKRFKNATWHLKSERVQGNYSELNEELIVGDKTYDIRINLVHIDGKLHSVVIEDI”, the protease stability score amounted to 1.01.

In turn, “DEREQEAHRAIEKFMHYVRTGNEDKLKEFLDPNALNLFDGRHDVGREDVTESMIEIMRHLGVTLHDVKITDMRTQGDYLTVNGWFNLEYDGVRDNHKVFIHSRKVDGKWIITKIDWR” showed a protease stability score of 1.26.

The sequence “DERERDAEDALDELREIWRTGDWELIHQMLDPEVRLDINGVRLVGREHWVDEVRRLFHKVPGMTYHLKDVHFQGNKMHVDILSRYDGRESKVDLILLKINGKWLNKEVRIREE” registered a protease stability score of 0.807.

Sequence “DERERDARIYFHLLLHVIMTGNEEDLERFMDPHARIQIGDKMVHGRENVYHELLRIAREMRLHHSHIHEIRVIDGRVILKGHLDLEVGDKRELVDVEWIVIKVNGKWIFHSVHFR” showed a protease stability score of 2.53.

In turn, “DERERDARKAVKDFIESIRTGDEDEIEKLLDPHVRVDAPNHERHGREEVVEELREMRIEIRDVRFRHIHVQGNKIEVHVRVHGSLMINGREYRIDTTMIIIMEKIDGRWILTHIEEK” displayed a protease stability score of 1.62.

As to “DERERDIREWMRIYIEMWETGDEDKLLTMIDPHYREETENEDIHGREQAHKKIKDIKERADHLHIRVHDVDIIDGVAVLDVEILIIIGDKVIRVRTTIIMRKINGKWFIERVHIK”, the protease stability score was 0.235.

The sequence “DERERELKQALDLFKDIIKTGDEEALTRLIDPNAKMRVNGQDIHGWHHFILMMIRIYLHMGIKHIIDHRLHIQGDYLHLDTEVHVDGRSIRYHIVLFKFDGRWHLESSSSI” yielded a protease stability score of 1.6.

Regarding “DERERIAEEILRRIAKLMETGDENEMEHLMDPNVRLVFNGVRLHGMEDWEREMRRFDHIKIHTNEIQHIRLQGEKVDNDVRVDLLYHQGDKSWKIDTRTHYHFQKVNGKWIVREIIIE”, the protease stability score came to 1.39.

In the case of “DERERLLLEWARKFMENLITGNEELLKEMHDPHYRSHIGDKDLVGREVHHEFWEKHFRHWRIEKFDVRDYHTQGDKARLVVRIVIDVDGRRIDTEIHIHYDIIDGQLRLVTLQYE”, the protease stability score was found to be 1.5.

Regarding “DERESFIKEVMEQFNRDLLTGDEEHFKERADPDVKIIFDGRETHGWKVLHHLLREIRIRHMHIDDYDIQGDKARVHSTADVEYGDKEDELKIEIRLVVINGRLKEVSIIFR”, the protease stability score is 1.16.

Sequence “DERESLLEKLLRLWIELLKTGDEDTMLKLADPDAKYHVNGKDFHGWELASRIWFEERERLGIKHVHDHEIRFQGEKTELHGILLFDGVDVKFRIIIIVFNGRLHHVIVERD” returned a protease stability score of 1.53.

As to “DERFELFDWVVRLILHAHHTGDERIIHELADPNVRYIINGVTVHGRELMYRLAHEHLREIWVHHVQVRHFDVVGDFFRVEMEVVGLVNGVHYNEHRRLHLYVVNGRLKSSRIEIE”, the protease stability score amounted to 1.03.

On to “DERHDDRNHAIEAFKFMLDTGDWRVYSRNIDPNMRLEIGDKTFHGREELEHHITQIDHHHTHTLTIEHIDRVGDFVDIHITLSVTVIFDGRNETKTFHVDIHLVKIDGKWLIHKESVK”, for which the protease stability score amounted to 0.545.

With “DERHDDSRDLAHIFLHLLHTGDEDTIQEYLDPNAKYTLNINGVRVIMHGRETITRHWKEWLDKFKNATIHINDSTVQGDKVHNHTSMEINGQTHNTWIVVVVFNGKVRMIIVDVI”, the protease stability score stood at 1.29.

For the sequence “DERHEDIKKFMELVLRLAKTGDEDHFSNMVDPHARLEIGDKHYIGRELVSTLFHEIRLHDMKIHNIISYGDKVKADVRLDIEFDGRRWNINTLLIIHKVNGQWLLESERRH”, the protease stability score stood at 1.14.

Take “DERHEHAKEYLEMWLHSIFTGDERTLMELVDPNAKHLVNGRERHGRDELSRILIHIRMHVRDSKLRDMRVVGDKAIIHTEVDEELHFNGRTVRMIVEVEIYLFKVNGKWVFTEIRII”: the protease stability score came to 1.29.

Turning to “DERHEHTHELMRLLIEAFVTGDERLSEELADPHTRLHVNGVHNWGRERFVEVVRRLWSQVKNAKWTLRDFHVQGDKNEVVGDVHVDGQTIHVRFIFFVFNGRLESEEIRVH”, the protease stability score worked out at 2.4.

Take “DERHEHVREMSHRMEEWFETGDEDKWVKNADPNVITDINGQKLHGRENAARFLLHYHNRFKGMRFDIEDVDIQGEKVHIHSVQHFDGVKFDVRLIFEVFDGVIKSMHVEVK”: the protease stability score is 0.706.

In turn, “DERHEKAERVTRELIKLLITGDEDLLDDLIDPNARIEIGDKVTHGRDKFSREISEMGVDHVELKEIHVYGDKAIIKGKLDINGKRNKFILIMEKINGRWFLRSMRVEDH” came in with a protease stability score of 1.32.

“DERHELTRRVAVLWLHIFMTGDEDLFEKLADPTTRQEVLFNGRIYSLVGREEVSRWLREMVHELRFRHIEDKDKEIQGDKVLIDGILHIEAENHSTTIRSRIVLIVVNGKIHTIKFEFH” returned a protease stability score of 1.55.

In turn, “DERHETEERFLRTLIHSHMTGDEESHFEMMDPHAKLIYNGKEIHGMEVLRKELEEWRKKLGANHSHITIDHVELQGNKAHFDVTIDLIVDGRVIRTRIHIDIEKVDGRWIITRVIVK” returned a protease stability score of 0.489.

“DERHHRVKHWVHRFVHAWITGDERELRELLDPNVRLNFEFDGRREENVGRRDVDRFIHEILEKYKNVTIIFRDFEIVGDKFHLHTELIIGDKKHRIHIEINVINGQHEWIKIHIE” returned a protease stability score of 1.66.

Sequence “DERHKHDIEVAKEFLEVERTGDEHLLRRLADPHVLSNINGVHNHGRETVIEFWREWFEEWRVTEIKIRHLDAYDGRVRIEGRMRVIYDGREHTIDSEFRLVVVNGRLKSMELILH” registered a protease stability score of -0.043.

Consider “DERHKMIKDFAHLMLRARKTGDWDVMTRLFDPNTRVTQGDFELHGMESFSDWLHELHRQVPNVVEHDHSVDAFDGRVHLKTEERINGRILRIRIIIIVVDGKIKELRIEVD”, for which the protease stability score was 1.37.

With “DERHNKQWNKELIKIWTDGDHKKFSEMLDKDVQIQVGDKEYHGREEIVRQYKTLMDRADHFEVKRYEVKGNDITIIFTFQVNGRRDQVRVVFVIENGHVKKITMDKK”, the protease stability score was 1.97.

“DERHQDLREVLTRLMHLLLTGDWDEFHRLADPSTQLEVGDFHFHGWEMVVEFLKRFYFHIRLRRFHIEHVRVINGRIDSDTRVESEVNGVRDVERTHVHLNKVDGRWVIKRMHME” gave a protease stability score of 0.966.

The sequence “DERHRYMKLFLDIFLHLYQTGDWDKLEHLADPHVKLIFENHELHGRDSFFRFILEWLRHMGVNHVEFHNIHYDLVGDKVHLEVRLIVFINGRIHHVIIHIIAEKIDGKWHLRSHEIRHE” yielded a protease stability score of 1.34.

“DERKEDLDRALEEFLRSVETGDEELNERLADPNVKLVIDGVKYHGMEFIVKQLDEWRIHDMRIRRIRNVGEKVYVDLSVDGNFNGRRYRTEVKIVFTKINGRWLLETHIVD” gave a protease stability score of 1.87.

For the sequence “DERKEHSIKVAKNIFNDILTGDEDRMKEMMDPDVKLHIGDKDVIGRENVIKFMIEEWNHIRFEDFKHKDVRVQGDKAILEGHINVEYGDKHRNVDSRYLVFVIDGRIKSIEIRLH”, the protease stability score worked out at 1.39.

“DERKEMTRHFTEEWIRLWETGDFEHMHDLFDPHARIIIDGQDHHGMEHVNERWRRIKNIRLEIKDFKVYGDKIFIDLKVTVNGREEKVEIIVVVVDGKFKMIEFRFV” registered a protease stability score of 2.11.

“DERKEYVEILVRILIELFLTGDWEHMLRLADPNMRFRIGDKETHGMEEAYKLMEELKEEIRIHEVRLTHIRVYGDFADTETRVHVEVGDKIVDYDMRLHLVVVNGQLRHITIEIE” had a protease stability score of 0.731.

“DERKHFFDIALEILKKTIKTGDEREHNENVDPRVKNDINGVELHGMETVSEFHLRLWEEMRVEEIHIRDLDIQGNKAVFHTSLRRRYNGRELEIELHYIVVKVNGRWFIQEIIIR”: the protease stability score was 1.57.

Take “DERKKATKETMRLEEEARNTGDEHELTKLVDPHVRLVIDGVNFIGWEVFLKRFNDLGADHVELRIDEIELIGDKVIVHGTLRIRVGDKETQEKVELYWLKINGRWVLEQVNHK”: the protease stability score came out at 1.71.

As to “DERKKDAERMVEWIMHLWETGNFERLFRLADPHVRFILHQGDKELHFHGRELVEEAIFRLLLHIRIDDRIDRRVHIFPNRLDIHGQVHVHVGDKRHDLIIHIEVFIIDGKLKRIEIEIE”, the protease stability score is 1.49.

As to “DERKTISHMIEEIWHRIIRTGDEEAFIKYFDPHARIHVDGKEIHGREKVLEFLIEIFRHLRVEDYTVHSYNTQGDKIHIDTRMDGEVDGRREVNQTRIIATKINGQWILTEVHLS”, the protease stability score is 0.36.

Turning to “DERLEIARRVVELSIRMLHTGNEEVVRHLLDPNYRLHINGVHLIGMEEFSKWLKELRFDLEHVQMHHITDINGRLFVIGEIIGRLHYDGVTVREERESIWFIEKVDGKWIIKEVELR”, the protease stability score amounted to 1.18.

On to “DERMEVIEELLKKISHALYTGNEKLLEQMADPNVRLEIGDKEFVGWEQLLELIREIRLSITDIDIRDERLIGNKIHLRGESRTIHVIGDKTWEERRDVHFVILKIDGKWVMHEIEYR”, for which the protease stability score turned out to be 1.95.

“DERNDRAREYVELWEDALRTGDEHILMELADPHTRIEIGEFEIIGREEIMRFMNEIRVHVRESRIKRVTEIDGVLFADIHVRREFRFDGRSKEVRTDVIIIFNKFDGKWLLESVHVK” yielded a protease stability score of -0.01.

The sequence “DERQEEARKMFEDVYKAVWTGDEEELLRLMDPNVRIDIDGKILHGREALSEEWKRVDHVHHEHHEDMKVIGNKLHVRGHIEVDIDGRNLRYTIDNYLVVVNGRIKEVKEREV” came in with a protease stability score of 0.664.

The sequence “DERQHEARKVFLEWIRREVTGDFERVRHLADPNMRMDINGVEHHGRDRMSELIFRQLEEMRIEIHIRHYHVIGEKVHANIEMRVRQGDWDETRTIEIIFVVIDGRLHDYTVHIL” registered a protease stability score of 0.643.

“DERQHHAENFHELFFRWVETGDWENQRELADPNMRVDLVVNGVELHDHGMDSFTKRLHELRLHHLDIRSVHYVNGRIDSDIRVDGVIDGRRIDTHMRLHLRVINGKMREIRIQID” came in with a protease stability score of 1.33.
